In paper PMC11756389:

How the values were obtained:
[1] = molecular target: T1, paired immunoglobulin-like receptor B (PIR-B), C-terminal biotinylated (mouse), P97484; assay: SPR
T1 chain: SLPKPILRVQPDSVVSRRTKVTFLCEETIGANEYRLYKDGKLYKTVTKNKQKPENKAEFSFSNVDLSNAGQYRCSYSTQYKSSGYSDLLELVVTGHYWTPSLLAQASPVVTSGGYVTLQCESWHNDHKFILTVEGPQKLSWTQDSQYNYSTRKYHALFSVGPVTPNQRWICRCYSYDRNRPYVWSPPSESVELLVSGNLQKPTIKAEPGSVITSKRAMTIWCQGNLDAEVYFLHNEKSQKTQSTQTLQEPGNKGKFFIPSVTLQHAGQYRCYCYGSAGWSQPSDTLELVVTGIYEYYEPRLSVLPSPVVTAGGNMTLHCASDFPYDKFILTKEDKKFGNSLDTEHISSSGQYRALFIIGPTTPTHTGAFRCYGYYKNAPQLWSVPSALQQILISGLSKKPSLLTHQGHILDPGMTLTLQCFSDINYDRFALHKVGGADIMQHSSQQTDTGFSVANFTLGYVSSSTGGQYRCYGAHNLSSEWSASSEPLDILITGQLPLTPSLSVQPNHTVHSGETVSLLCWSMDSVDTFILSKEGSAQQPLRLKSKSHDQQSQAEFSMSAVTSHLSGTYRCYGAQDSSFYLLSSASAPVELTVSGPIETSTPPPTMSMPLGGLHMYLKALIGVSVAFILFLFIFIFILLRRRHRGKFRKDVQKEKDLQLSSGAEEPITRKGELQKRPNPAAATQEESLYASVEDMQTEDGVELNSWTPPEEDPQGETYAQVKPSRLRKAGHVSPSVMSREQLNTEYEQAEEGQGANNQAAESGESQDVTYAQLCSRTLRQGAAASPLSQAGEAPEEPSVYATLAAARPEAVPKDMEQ

[2] = molecular target: two N-terminal domains (D1D2) of LILRB2 with a C-terminal biotinylation tag, biotinylated (human); assay: SPR

B1: soluble HLA-G2 homodimer (non-PEGylated) (domain or fragment)
chain: GSHSMRYFSAAVSRPGRGEPRFIAMGYVDDTQFVRFDSDSACPRMEPRAPWVEQEGPEYWEEETRNTKAHAQTDRMNLQTLRGYYNQSEANPPKTHVTHHPVFDYEATLRCWALGFYPAEIILTWQRDGEDQTQDVELVETRPAGDGTFQKWAAVVVPSGEEQRYTCHVQHEGLPEPLMLRW
modifications: not checked
[1]
  specific binding response at 6.2 μM: 100 RU
[2]
  Kd: 0.041 to 0.064 pM
